Experimental findings from the nanobody polyreactivity screen of Harvey et al. (2022) are described below.

The nature of this data set: yeast display, Sf9 membrane polyspecificity reagent, FACS + sequencing; frameworks hold sequencing errors. Summed up:
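Nanobodies came from a synthetic yeast display library in Saccharomyces cerevisiae BJ5465, induced with galactose for 36–48 hours and stained for 1 hour at 4 °C with 10% biotinylated, detergent-solubilized Sf9 membrane reagent. Cells were enriched on streptavidin microbeads and then FACS-sorted, with low and high (top ~1%) gates set on anti-HA fluorescence for expression and streptavidin fluorescence for reagent binding. Each polyreactivity label reflects the gate a clone came from. Genes were amplified by colony PCR, sequenced by MiSeq 2 × 250 and filtered by CDR length.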
Take “QDLLVESGGGLVQAGGSLRLSCAASGYTFGNNAMGWYRQAPGKERELVATISGGGRTKYADSVKGRFTISRDNAKNTVYLQMYSLKPEDTAVYYCNVVQTYYRGSYIYIKYGYWGQGTQVTVSS”: the “polyreactivity (PSR sort gate)” value is recorded as “high polyreactivity”.
In the case of “QDQHVESAGGVVQTGGSLRLSGAATGSIFGEYAMGWYRQPPGQEREFVADITRSDGSTYYADSVKGRFTISRDHAKNTVYFQMNSMKPEYTAVYYCAADSVLDRPVLYLGPWYLGDYWGQGTLVTVSS”, the “polyreactivity (PSR sort gate)” value is “low polyreactivity”.
For “QDQHVESGGGLDQAGGSLRLSCAASGRTIRSYAMGGYRPAPRKESELVAAISSRGGNTYYADSVKGRFTISRDNAKYTVYLQMNSLKPEDTAVYYSNRVRYGVPLIVGDDYWGQGTQVTVSS”, the “polyreactivity (PSR sort gate)” value is “high polyreactivity”.
Consider “QDQHVESGGGLVQAGCSLRLSCAASGSIFSWNAMGWYRQAPGKERELVAAIRWDTGSTYYADSVKVRFTISRDKAKNTVYLQMNRLKPEDTAVYYCAADLFDCQLIDGFAVVTYGYWGQGTQVTVSS”, for which the “polyreactivity (PSR sort gate)” value is “low polyreactivity”.
In the case of “QDQHVESGGGLVQAGGRLRLICAASGGNFTKNAMGWYRQAPGKERELVAGISRTGGNTYYADSVKGRFTISRDNAKNTVYLQMNSLKPDDTAVYYCNALYGGPHRLRYDYWGQGTQVTVSS”, the “polyreactivity (PSR sort gate)” value was “low polyreactivity”.
Regarding “QDQHVESGGGLVQAGGSLRLICAASGSIFIANAMGWYRQAPGKERELVAAITLNGGSTYYADSVKGRFTISRDNAKNTVYLQMNSLKPEDTAVYYCAADWVWVAPQYWFVEYDYWGQGTQVTVSS”, the “polyreactivity (PSR sort gate)” value is “low polyreactivity”.
In the case of “QDQHVESGGGLVQAGGSLRLSCAAPGITFYPYDMGWYRQAPGKERELVASISRSGGSTYYADSVKGRFTISRDNAKNTVYLQMNSLKPEDTAVYYCNAYSTRGMYSWGQGTQVTVSS”, the “polyreactivity (PSR sort gate)” value is recorded as “high polyreactivity”.
Consider “QDQHVESGGGLVQAGGSLRLSCAASGFTFSDYALGWYRQAPGKERELVAAISTRGSSTYYADSVKGRFTISRDNAKNTVYLHLNSLKQDYTAVSYCNAVGSYSGYYYWGQGTHVTVSS”, for which the “polyreactivity (PSR sort gate)” value is given as “high polyreactivity”.
Consider “QDQHVESGGGLVQAGGSLRLSCAASGRIFFHNAMGWSRQAPGKERELVAAIRSSTGSTYYADSVKGRFTISRDNAKNTVYLQMNSLKPEDTAVYYCARYAYANAYYGKSYWMGYWGQGTQVTVSS”, for which the “polyreactivity (PSR sort gate)” value is recorded as “high polyreactivity”.
On to “QDQHVESGGGLVQAGGSLRLSCAASGSTFPTNAMGWYRQAPGKERELVADITIRGGGTSYADSVKGRFTISRDNAKNTVYLQMNSLKPEDTEVYYCARSKSTELKRLLYDSWGQGTQVTVSS”, for which the “polyreactivity (PSR sort gate)” value is “low polyreactivity”.
Consider “QDQHVESGGGLVQAGGSLRLSCAATGNIFRYYTMGWYRQAPRKERELVAAISWNGGSTYYADSVKGRFTISRDNAKNTVYLQMNSLKPEDTAVYYCNAVQYYEFDYWGQGTQVTVSS”, for which the “polyreactivity (PSR sort gate)” value is listed as “low polyreactivity”.
With “QDQHVESGGGLVQAGGSLRLSCDASGRTFRKNAMGSYRQARGKERELVAAISWSGDSTYYADSVKGRFTISRDNAKNTVYLQMNSLKPEDSAVYYCAADSRYHFYYWRQGTQVTVSS”, the “polyreactivity (PSR sort gate)” value is “high polyreactivity”.
As for “QDQHVESGGGLVQAGGSLRLSIAASASTIGFNAMGWYRQAPGKERELVAAITFSGGTTYYADSVKGRFTISRDNAKNTVYFQMNSLKPEDTAVYYCNADWWYQYSGPFAPWGEDYWGQGTQVTVSS”, the “polyreactivity (PSR sort gate)” value is “low polyreactivity”.
“QDQHVESVGGLVQAGGRLRLSSAASGLIFFDSPMVSDRQAPGKERELVAAISTTGGSTYYADSVKGRCTISRDNAKNSVYLEMNSLKPEDTAVYYCNARFVHHSWGTNYYWGQGTQVTVSS”: the “polyreactivity (PSR sort gate)” value is given as “high polyreactivity”.
Regarding “QDQHVESVGGLVQAGGSLRLSCAASGRTFAWNAMGWYRQAPGKERELVAVITSGGSTNYADSVKGRFTISRDNAKNTVYLQMKSLKPEDTALYYCAAGHSWVYGYDYWGQGTQVTVSS”, the “polyreactivity (PSR sort gate)” value is recorded as “low polyreactivity”.
For the sequence “QDQLEDSGGGLVQAGGSLRLICAASGSIFDTYAMGWYRQAPGKERELVATISWSGDSTYYADSVKGRFTISRDNAKNTVYLQLNSLKPEDTAVYYCAATTDALVGRPRYDYWGQGTQVTVSS”, the “polyreactivity (PSR sort gate)” value is reported as “low polyreactivity”.
For “QDQLGESGGGLVQAGGSLRLSCAASGRSFTYYTMGWYRQAPGKERELVATINNSGGSTYYADSVKGRFTISRDNAKNTVYLQMNSLKPEDTAVYYCAKVLGLPYGAPRSIFVEWEMDYWGQGTQVTVSS” the value was “low polyreactivity”; for “QDQLLESGGGLVQAGGSLRISCAASGRTIIRNAMGWSRQAPGKERELVAAITSGGSTNYADSVKGRFTISRDNAKNTVYLQMNSLKPEDTAVYYCAARYGSQYKHRFYYWGQGTQVTVSS”, “high polyreactivity”; for “QDQLQESGGGLVQAGGSLRLSCAASGRIIYGYAMGWYRQAPGKERELVAAITATYYADSVKGRFTISRDNAKNTVYLQMNSLKPEDTAVYYCNAYLSPKQPLSPPDPTFEGGYWGQGTQVTVSS”, “low polyreactivity”.
Consider “QDQLVDSGGGLVQAGGSLRLSCAASGIIFYRYAMGWYRQAPGKERELVATITASGGRTYYADSVKGRFTISRDNAKNTVYLQMNSLKPEDTAVYYCAAVSSYRLYSDYGYWRQGTQVTVSS”, for which the “polyreactivity (PSR sort gate)” value was “high polyreactivity”.
As for “QDQLVDSGGGLVQAGGSLRLSCAASGLSFDLYDMGWYRQAPGKERELVAAIDWSATRTYYADSVKGRFTISRDNAKNTVYLQMNSLKPEDPAVYYCNAEAVYEYWIYDYWGQGTQVTLSS”, the “polyreactivity (PSR sort gate)” value is recorded as “high polyreactivity”.
As to “QDQLVDSGGGLVQAGGSLRLSSAASGFSYGGYAMGWYRQAPGKERELVAAISSGGGTTYADSVKGRFTISRDNAKYTVYLQMNSLKPEDTAVYYCAAVTRDYRNDRRRQRCYYWGQGTQVTVSS”, the “polyreactivity (PSR sort gate)” value is recorded as “high polyreactivity”.
As for “QDQLVEAGGGLVQAGGSLRLSCAASGFTFYPYAMGWYRQAPGKERELVAAISYSGDRTYYADSVKGRFTISRDNAKNTVYLQMNSLKPEDTAVYDCVSAVHPGKYYYWGQGTQVTESS”, the “polyreactivity (PSR sort gate)” value is “high polyreactivity”.
Regarding “QDQLVESAGGLVQAGGSLRLSCAASGRIFSRYAMGWYRQAPGKERELVAAITQSGTSTYYADSVKGRFTISRDIAKNTVYLQMNSLKAEDTAVYYCNAYSQYRYDYWGQGTQVTVSS”, the “polyreactivity (PSR sort gate)” value is recorded as “low polyreactivity”.
As to “QDQLVESAGGLVQAGGSLRLSCAASGSIFTSNAMGWYRQAPGKETELVAAITSSGGSTYYADSVKGRFTISRDNAKNTVYVQMNSLKPEVTAVYYCAGAKFDLSFWLYYWGQGTQVTVSS”, the “polyreactivity (PSR sort gate)” value is “low polyreactivity”.
In the case of “QDQLVESAGGLVQAGGSLRLSCAASGSTFVRNAMGWYRQEPGKERELVAAISVDGSSTYYADSVKGRFTISRDIAKNTVYLQMNSLKPEVTAVYYCNADWDYRDFYAITYDFWGQGTQVTVSS” it was “low polyreactivity”; in that of “QDQLVESAGGLVQAGGSLRLSCAATASTFHLYAMGWYRQAAGKERELVASIRWSGGSTYYADSVKGRFTISRDNAKNTVYLQMNSLKPEDTAVYYCASEAVPYWSWGRPMYYWGQGTQVTVSS”, “high polyreactivity”; in that of “QDQLVESAGGLVQAGGSLSLSCAASGNIFVYYAMGWYRQAPGKERELVAAITSDVSTYYADSVKGRFTISRDNAKNTVYLQMNSLKPEDTAVYYCATTGYGSYVIYGGQGTQVTVSS”, “low polyreactivity”.
In the case of “QDQLVESCGGLVQAGGSLRLSCASSGIIFVNYAMGWYRQAPGKERELVAAITTSGGSTYYADSVKGRFTISRDNAKNTVYLQMNCLKPEDTAVYYCAKISSLFKHVVRYDYWGQGTQVTVSS” it was “low polyreactivity”.
In the case of “QDQLVESGAGLVQAGRSLRLSCAASGSIFRWYAMGWYRQAPGKERELVAAISTSGGNTYYADSVKGRFTISRDNAKNTVYLEMKSLIPEDTAVYYCNALWYRSLYYRYDYWGQVTQVTVSS” it was “high polyreactivity”; in that of “QDQLVESGGALVQAGGSLRLSCAASGFTYYGNAMGWYRQAPGKERELVAAISSSGGITYYADSVKGRFTISRDNAKNTVYLQMNSLKPEDTAVYYCAAVQGTPDYEYDSWGQGTQVTVSS”, “low polyreactivity”; in that of “QDQLVESGGCLVQAGGSLRLSCAASGSIFTDNVMGWYRQATGKERELVAAITSTGGNTYYADSVKGRFTISRDNAKNTVYLQMNSLKREDTAVYYCNKDVARYPYGKFDYWGQGTQVTVSS”, “low polyreactivity”.
Regarding “QDQLVESGGCLVQAGGSLRLSCAAYGSTFYRYTMGWYRQAPGKERELVAAISRSGGRTYYADSVKGRFTLSRDNAKNTVFVQINSLKPEDTAVYYCNAEIASSAVQAQEGDYWGQGTQVTVSS”, the “polyreactivity (PSR sort gate)” value is “high polyreactivity”.
On to “QDQLVESGGGIVQAGGSLRLSCAASGFIFSTNAMGWYRQAPGKERELVAAITGRGTNTYYADSVKGRFTISRDNAKNTVYLQMNSLKPEDTAVYYCAADNKDSEDDYWGQGTQVTVSS”, for which the “polyreactivity (PSR sort gate)” value is “high polyreactivity”.
On to “QDQLVESGGGIVQAGGSLRLSCAASGFIFYTYAMGCYRQAPGKESELVAAISSRGTRTYYADSVKGRFTISRDNAKNTVFLQMNSLKPEDTAVYYCAAVSYSYEYPSFDMGYWGQGTQVTVSS”, for which the “polyreactivity (PSR sort gate)” value is “high polyreactivity”.
As for “QDQLVESGGGIVQAGGSLRLSCAASGSTFTWYAMGWYLQDPGKEREFVAAITRSGDSTYYADSVKGRFTISRDNAKNTVYLEMNSLKPEDTAVYYCAASNDYLRGWFDYWGQGTQVTVSS”, the “polyreactivity (PSR sort gate)” value was “low polyreactivity”.
Consider “QDQLVESGGGLDQAGCILRLSCAASGITFSVYTMGWSRQAPGKERELVAANDSDGITNYADSVKGRFTISRDNAKNTDYLQMNSLKPEDTAVYYCNAIADGSSSRWRPYSKFYYWGKGTQVTVSS”, for which the “polyreactivity (PSR sort gate)” value is reported as “low polyreactivity”.
For “QDQLVESGGGLDQAGGSLRLSCAASGSTFPGYAMGWYRQAPGKERELVASIYTGGSTYYADSVKGRFTISRDNAKNTVYLQMNSLKPEDTAVYYCAADSYNVSSLLYYWGQGTQVTVSS” the value was “low polyreactivity”; for “QDQLVESGGGLDQAGGSLRLSCAASGSTLGNNAMGWYRQAPGKERELVAAISTRGGSTYYADSVKGRFTISRDNAKNTVYLQMNSLKPEDTAVYYCAADFGQYHGDVRKMDYWGQGTQVTVSS”, “low polyreactivity”.
In the case of “QDQLVESGGGLVQAGCSLRLSCAASGFIFPNYAMGWYRQAPGKERELVAAISTDGSTNYADSVKGRFTISRDNAKTTVYLQMNSLKTEDTAVYYCAKYGRVKPQRYDYDYWGQGTQVTVSS” it was “high polyreactivity”.
